Laboratory results from patent US7119182 (University of California, dated 2006).
Square brackets hold non-standard residues; d marks the D form. Ends that are not written are not given here. * marks the point of attachment. 2‑Mba = 2-mercaptobenzoic acid, O=C(c1ccccc1S)*; Cha = N[C@@H](CC1CCCCC1)C(=O)O; Mpa = O=C(O)CCS

T1: human thrombin receptor (human, UniProt P25116 42-425)
T1 chain: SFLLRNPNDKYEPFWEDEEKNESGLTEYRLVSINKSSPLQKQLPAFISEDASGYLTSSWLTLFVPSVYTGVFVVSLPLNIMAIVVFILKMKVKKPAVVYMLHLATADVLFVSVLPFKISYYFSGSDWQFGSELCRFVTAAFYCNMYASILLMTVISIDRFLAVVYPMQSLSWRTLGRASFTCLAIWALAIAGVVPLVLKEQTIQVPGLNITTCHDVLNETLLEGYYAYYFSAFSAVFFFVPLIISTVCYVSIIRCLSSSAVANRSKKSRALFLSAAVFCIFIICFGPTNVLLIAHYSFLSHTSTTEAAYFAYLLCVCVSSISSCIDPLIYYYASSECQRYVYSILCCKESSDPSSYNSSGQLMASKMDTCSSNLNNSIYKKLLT

T2: mutant thrombin receptor with the amino acid substitution R41A (human, UniProt P25116 22-425, limits assumed)
T2 chain: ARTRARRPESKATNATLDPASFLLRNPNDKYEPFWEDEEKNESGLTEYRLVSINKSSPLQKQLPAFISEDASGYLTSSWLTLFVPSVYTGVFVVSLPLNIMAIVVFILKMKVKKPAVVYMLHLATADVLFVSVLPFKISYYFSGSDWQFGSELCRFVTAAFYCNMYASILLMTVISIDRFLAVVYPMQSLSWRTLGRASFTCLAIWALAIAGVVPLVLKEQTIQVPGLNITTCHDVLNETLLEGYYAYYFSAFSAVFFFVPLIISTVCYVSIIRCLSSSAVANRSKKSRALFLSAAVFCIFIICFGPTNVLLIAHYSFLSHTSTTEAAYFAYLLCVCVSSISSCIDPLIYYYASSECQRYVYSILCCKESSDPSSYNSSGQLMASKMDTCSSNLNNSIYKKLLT


Experiments:
Test in all cases: cell-based or functional assay
[1] = biological target: thrombin (UniProt P00734 364-622; P00734 328-363)
[2] = biological target: T1, human thrombin receptor
[3] = biological target: T2, mutant thrombin receptor with the amino …
[4] = biological target: T1, human thrombin receptor

Row | IC50, inhibition of thrombin-induced platelet ATP secretion (peptide preincubated with thrombin) [1] [µM] | IC50 (50% inhibition of thrombin-induced platelet activation or aggregation) [2] [µM] | Binder | further results
1 | ~0.5 |  | LDPRPFLLRNPNDKYEPFWEDEEKNES | 
2 |  | 108 | [Mpa]FLLRNPNDKYE-NH2 (SMILES CC(C)C[C@H](NC(=O)[C@H](Cc1ccccc1)NC(=O)CCS)C(=O)N[C@@H](CC(C)C)C(=O)N[C@@H](CCCNC(=N)N)C(=O)N[C@@H](CC(N)=O)C(=O)N1CCC[C@H]1C(=O)N[C@@H](CC(N)=O)C(=O)N[C@@H](CC(=O)O)C(=O)N[C@@H](CCCCN)C(=O)N[C@@H](Cc1ccc(O)cc1)C(=O)N[C@@H](CCC(=O)O)C(N)=O) [Mpr-FLLRNPNDKYE-NH2] | 
3 |  | 50 | {2‑Mba}-F[Cha][Cha]RKPNDK-NH2 (SMILES N=C(N)NCCC[C@H](NC(=O)[C@H](CC1CCCCC1)NC(=O)[C@H](CC1CCCCC1)NC(=O)[C@H](Cc1ccccc1)NC(=O)c1ccccc1S)C(=O)N[C@@H](CCCCN)C(=O)N1CCC[C@H]1C(=O)N[C@@H](CC(N)=O)C(=O)N[C@@H](CC(=O)O)C(=O)N[C@@H](CCCCN)C(N)=O) [(2-Mba)-F(Cha)(Cha)RKPNDK-NH2] | 
4 |  | 80 | [Mpa]FLLRNPNDK [Mpr-FLLRNPNDK] | 
5 |  |  | SFLLRNPNDKYEPF ["new amino-terminal" peptide SFLLRNPNDKYEPF] | Fold increase in 45Ca (release by oocytes expressing receptor cRNA); “SFLL” peptide 200 µM [3]: 53 fold; Fold increase in 45Ca (release by oocytes expressing receptor cRNA); “SFLL” peptide 40 µM [4]: 32 fold; Fold increase in 45Ca (release by oocytes expressing receptor cRNA); “SFLL” peptide 200 µM [4]: 42 fold
6 | ~200 |  | LDPRPFLL | 
